Assay results as given in the RNAGym collection of RNA variant scans (doi:10.1073/pnas.2313332121).
This sample holds only a part of the variants without activity.

B1: TPR 5TU (parent)
chain: GGAUCUUCUCGAUCUAACAAAAAAGACAAAUCUGCCACAAAGCUUGAGAGCAUCUUCGGAUGCAGAGGCGGCAGCCUUCGGUGGCGCGAUAGCGCCAACGUUCUCAACUAUGACACGCAAAACGCGUGCUCCGUUGAAUGGAGUUUAUCAUG

Variants of: B1
Test: polymerase ribozyme fitness, log enrichment relative to wild type (log ratio); higher = more active; in vitro selection for triplet polymerase activity
Method in brief: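 PCR was used to build mutant libraries for each subunit of a heterodimeric triplet polymerase ribozyme, which were then transcribed. A single in vitro selection round, in triplicate, used a frozen incubation at −7 °C and recovered extended constructs by gel excision, streptavidin beads and RT-PCR. Fitness is the logarithm of genotype enrichment relative to wild-type enrichment, averaged over replicates with inverse-variance weights. The logarithm is base 2, and after Illumina sequencing only genotypes with ≥10 input reads and ≥1 read per output were kept.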

| Variant | polymerase ribozyme fitness (log ratio) |
| --- | --- |
| GGAUUUUCUCGAACUAACAAAAGAGACAAAUCUGCUACAAAGCUUAAGAGCAUCUUCGGAUGCAGAGGCGGCAGCCUUCGGUGGCGCGAUAGCGCCUACGUUUUCAACUAUGACACGCAAAACGCGUGCUCCGUUGAAUGGAGUUUAUCAUG [C5U U13A A23G C36U G46A A97U C103U] | ≤ -4.2 |
| GGAUUUUCUCGAUCUAACAAAAAAGACAAAUCUGCCACAAAGCUUGAGAGCAUCUUCGGAUGCAGAGGCGGCAGCCUUCGGUGACGCGAUAGCGACAACGUUCUCAACUAUGACACGCAAAACGCGUGCUCCGUUGAAUGGAGUUUAUCAUG [C5U G84A C95A] | 0.351 |
| GGAUUUUCUCGAUCUAACAAAAAAGACAAAUCAGCCACAAAGCUUGAGAGCAUCUUCGGAUGCAGAGGCGGCAGCCUUCGGUGGCGCUAUAGCGCUAACGUUCUCAACUAUGACACGCAAAACGCGCGCUCCGUUGAAUGGAGUUUAUCAUG [C5U U33A G88U C96U U127C] | ≤ -4.2 |
| GGAUUUUCUCGAUCUAACAAAAAAGACAAAUCUGCCACAAAGCUAGAGAUCAUCUUCGGAUGCAGAGGCGGCAGCCUUCGGUGGCCCGAUAGCGCUAACGUUCUCAACUAUGACACGCAAAACGCGUGCUCCGUUGAAUGGAGUUUAUCAUG [C5U U45A G50U G86C C96U] | ≤ -4.2 |
| GGAUCAUCUCGCUCUAACAAAAAAGACAAAUCUGCCACAAAGCUUGAGAGCAUCUUCGGAUGCAGAGGCGGCAGCCUUCGGUGGCGGGUUAGCGCCAACGUUCUCAACUAUGACACGCAAAACGCGUGCUCCGUUGAAUGGAGUUUAUCAUG [U6A A12C C87G A89U] | -3.27 |
| GGAUUUUCUCGAUCUAACAAAAAAGACAAAUCUGCCACAAAGCUUGAGAGCAUCAUCGGAUGCAGAGGCGGCAGCCUUCGGUGGCGCGAUAGCGCCAACGUUCUCAACUAUGACACGCAAAACGCGUGCUCCGUUGAAUGGAGUUUAUCAUG [C5U U55A] | 0.322 |
| GGAUUUUCUCGAUCGAACAAAAAAGACAAAUCCGCCACAAAGCUUGAGAGCAUCUUCGGAUGCAGAGGCGGCAGCCUUCGGUGGCGCGAUAGCGCCAACGUUCUCAACUAUGACACGCAAAACGCGUGCUCCGUUGAAUGGAGUUUAUCAUG [C5U U15G U33C] | -4.17 |
| GGAUUUUCUCGAUCUAACAAAAAAGACAAAUCUGCCACAAAGCUUGAGAGCAUCUUCGGAUGCAGAGGCGGCAGCCUUCGGUGACGCGAUAGCGCCAACGUUCUCAACUAUGACACGCAAAACGCGUGCUCCGUUGAAUGGAGUUUAUCAUG [C5U G84A] | 0.439 |
| GGAUUUUCUCGAUCUAACAAAAAAGACAAAUCUGCCACAAAGCUUGAGACCAUCUUCGGAUGCAGAGGCGGCAGCCUUCGGUGGCGUGAUAGCGCCAACGUUGUCAACUAUGACACGCAAGAUGGGUGCUCCGUUGAAUGGAGUUUAUCAUG [C5U G50C C87U C103G A121G C123U C125G] | ≤ -4.2 |
| GGAUUUUCUCGAUCUAACAAAAAAGACAAAUCUGCCACAAAGCUUGAGAGCAUCUUCGGAUGCAGAGGCGGCAGCCUUCGGUGACGCGAUAGCGCCAACGUUCUCAACUAUGACACGCAAAACGCGUGCUCCGUUGAAUGGUGUUUAUCAUG [C5U G84A A142U] | -0.976 |
| GGAUUUUCUCGAUCUAACAAAAAAGACAAAUCUGCCACAAAGCUUGAGAGCAUCUUCGGAUGCAGAGGCGGCAACCUUCGGUGGCGCGAUUGGGCCAACGUUCUCAACUAUGACACGCAAAACGCGUGCUCCGUUGAAUGGAGUUUAUCAUG [C5U G74A A91U C93G] | ≤ -4.2 |
| GGAUCAUCUCGUUCUAACAAAAAAGACAAAUCUGCCACAAAGCUUGAGAGCAUCUUCGGAUGCAGAGGCGGCAGCCUUCGGUGGCGCGAUAGCGCCAACGUUCUCAACUAUGACACGCAAAACGCGUGCUCCGUUGAAUGGAGUUUAUCAUG [U6A A12U] | 0.206 |
| GGAUCAUCUCGGUCUAGCAAAAAAGACAAAUCUGCCACAGAGCUUGAGAGCAUCUUCGGAUGCAGAGGCGGCAGCCUUCGGUGGCGCGAUAGCGCAAACGUUCUCAACUAUGACACGCAAAACGCGUGCUCCGUUGGAUGGAGUUUAUCAUG [U6A A12G A17G A40G C96A A137G] | -3.74 |
| GGAUUUCCUCGAUCUAACAAUAAAGACAAAUCUGCCACAAAGCUUGAGAGCAUCUUCGGAUGCAGAGGCGGCAGCCUUCGGUGGCACGAUAGCGCCAACGUUCUCAACUAUGACACGCAAAACGCGUGCUACGUUGAAUGGAGUUUAUCAUG [C5U U7C A21U G86A C131A] | -4.16 |
| GGAUUUUCUCGAUCUAACAAAAAAGACAAAUCUGCCACAAAGCUUGAGAGCAUCUUCGGAUGCAGAGGCGGCAGCCUUCGGUGGCGCGAUAACGCCAACGUUCUCAACUAUGACACGCAAAACGCGUGCUCCGUUGAAUGGAGUUUAUCAUG [C5U G92A] | -1.32 |
| GGAUUUUCUCGAAAUAACAAAAAAGACAAAUCUGCCACAAAGCUUGAGAGCAACAUCGGAUGCAGAGGCGGCAGCAUUCGGUGGCGCGAUAGCGCCAACGUUCUCAACUAUGACACGCAUAACCCGUGCUCCGUUGAAUGGAGUUUAUCAUG [C5U U13A C14A U53A U55A C76A A120U G124C] | ≤ -4.2 |
| GGAUUUUCUCGACCUAACAAAAAAGACAAAUCUGCCACAAAGCUUGAGAGCAUCUUCGGAUGCAGAGGCGGCAGCCUUCGGUGGUGCGAUAGCGCCAACGGUCUAAACGGUGACACGCAAAACGCGUGCUCCGUUGAAUGGAGUUUAUCAUG [C5U U13C C85U U101G C105A U109G A110G] | ≤ -4.2 |
| GGAUUUUCUCGAUCUAACAAAAAAGACAAAUCUGCCACAAAGCUUGAGAACAUAUUCGGAUGCAGAGGCGGCAGCUUUCGGUGUCGCGAUAGCGUCAACGUUCUCAACUAUGAUACGCAAAACGCGUGCUCCGUUGAAUGGAGUUUAUCAUG [C5U G50A C54A C76U G84U C95U C114U] | ≤ -4.2 |
| GGAUUUUCUCGAUCUAACAAAAAAGACAAAUCUGCCACAAAGCUUGAGAGCAUCUUCGGAUGCAGAGGCGGCAGCCUUCGGUGGCGCGAUAACGCCAACGUUCUCAACUAUGAUACGCAAAACGCGUGCUCCGUUGAAUGGAGUUUAUCAUG [C5U G92A C114U] | -3.86 |
